The results in this text go back to patent US6090929, “Protein binding fragments of gravin” (Oregon Health Science University, dated 2000).

The target of the experiment is recombinant murine RIIα (murine, UniProt P12367). The experiment in a line: in situ overlay of fixed, permeabilized PMA-treated HEL cells with recombinant murine RIIα, immunofluorescence.

Procedure: After 1 hr the coverslips were carefully washed in PBS and 0.2% BSA and incubated with either a mixture of FITC conjugated donkey anti-rabbit secondary antibody (1:100 dilution, Jackson ImmunoReasearch Laboratories Inc, West Grove, Pa.) and rhodamine conjugated phalloidin (1 unit/coverslip, Molecular Probes, Inc, Eugene, Oreg.) or secondary antibody alone. […] Prior to incubation with primary antibody, cells were incubated with 80 nM recombinant murine RII for 2 hr and unbound RII removed by washing three times in PBS and 0.2% BSA. […] Control coverslips were treated with the antibody to RII in the absence of exogenous murine RII. Cells were examined using a Leica confocal laser scanning system equipped with a Leitz Fluovert-FU inverted microscope and an argon/krypton laser.
Fixed and permeabilized cells pre-treated with PMA were overlayed with recombinant murine RIIα.

B1: gravin (full length, human; 250 kDa protein of cell lysates) (other)
chain: MGAGSSTEQRSPEQPPEGSSTPAEPEPSGGGPSAEAAPDTTADPAIAASDPATKLLQKNGQLSTINGVAEQDELSLQEGDLNGQKGALNGQGALNSQEEEEVIVTEVGQRDSEDVSERDSDKEMATKSAVVHDITDDGQEENRNIEQIPSSESNLEELTQPTESQANDIGFKKVFKFVGFKFTVKKDKTEKPDTVQLLTVKKDEGEGAAGAGDHQDPSLGAGEAASKESEPKQSTEKPEETLKREQSHAEISPPAESGQAVEECKEEGEEKQEKEPSKSAESPTSPVTSETGSTFKKFFTQGWAGWRKKTSFRKPKEDEVEASEKKKEQEPEKVDTEEDGKAEVASEKLTASEQAHPQEPAESAHEPRLSAEYEKVELPSEEQVSGSQGPSEEKPAPLATEVFDEKIEVHQEEVVAEVHVSTVEERTEEQKTEVEETAGSVPAEELVGMDAEPQEAEPAKELVKLKETCVSGEDPTQGADLSPDEKVLSKPPEGVVSEVEMLSSQERMKVQGSPLKKLFTSTGLKKLSGKKQKGKRGGGDEESGEHTQVPADSPDSQEEQKGESSASSPEEPEEITCLEKGLAEVQQDGEAEEGATSDGEKKREGVTPWASFKKMVTPKKRVRRPSESDKEDELDKVKSATLSSTESTASEMQEEMKGSVEEPKPEEPKRKVDTSVSWEALICVGSSKKRARRRSSSDEEGGPKAMGGDHQKADEAGKDKETGTDGILAGSQEHDPGQGSSSPEQAGSPTEGEGVSTWESFKRLVTPRKKSKSKLEEKSEDSIAGSGVEHSTPDTEPGKEESWVSIKKFIPGRRKKRPDGKQEQAPVEDAGPTGANEDDSDVPAVVPLSEYDAVEREKMEAQQAQKGAEQPEQKAATEVSKELSESQVHMMAAAVADGTRAATIIEERSPSWISASVTEPLEQVEAEAALLTEEVLEREVIAEEEPPTVTEPLPENREARGDTVVSEAELTPEAVTAAETAGPLGSEEGTEASAAEETTEMVSAVSQLTDSPDTTEEATPVQEVEGGVPDIEEQERRTQEVLQAVAEKVKEESQLPGTGGPEDVLQPVQRAEAERPEEQAEASGLKKETDVVLKVDAQEAKTEPFTQGKVVGQTTPESFEKAPQVTESIESSELVTTCQAETLAGVKSQEMVMEQAIPPDSVETPTDSETDGSTPVADFDAPGTTQKDEIVEIHEENEVHLVPVRGTEAEAVPAQKERPPAPSSFVFQEETKEQSKMEDTLEHTDKEVSVETVSILSKTEGTQEADQYADEKTKDVPFFEGLEGSIDTGITVSREKVTEVALKGEGTEEAECKKDDALELQSHAKSPPSPVEREMVVQVEREKTEAEPTHVNEEKLEHETAVTVSEEVSKQLLQTVNVPIIDGAKEVSSLEGSPPPCLGQEEAVCTKIQVQSSEASFTLTAAAEEEKVLGETANILETGETLEPAGAHLVLEEKSSEKNEDFAAHPGEDAVPTGPDCQAKSTPVIVSATTKKGLSSDLEGEKTTSLKWKSDEVDEQVACQEVKVSVAIEDLEPENGILELETKSSKLVQNIIQTAVDQFVRTEETATEMLTSELQTQAHVIKADSQDAGQETEKEGEEPQASAQDETPITSAKEESESTAVGQAHSDISKDMSEASEKTMTVEVEGSTVNDQQLEEVVLPSEEEGGGAGTKSVPEDDGHALLAERIEKSLVEPKEDEKGDDVDDPENQNSALADTDASGGLTKESPDTNGPKQKEKEDAQEVELQEGKVHSESDKAITPQAQEELQKQERESAKSELTES
On to B1, for which the binding result was “binds”.
